Measured values taken from patent US20240261333A1 (published 2024).
Each block holds one binder with its values, some of them ahead of it.

Assays:
TIMP3 = target: T1, TIMP3 (human, UniProt P35625 24-211); assay: co-IP with mouse anti-FLAG from lysate of cells overexpressing N-FLAG B3GNT2, then mass spectrometry
T1 construct: Identified by mass spectrometry in the co-IP; also called NP_000353.1
T1 sequence (looked up): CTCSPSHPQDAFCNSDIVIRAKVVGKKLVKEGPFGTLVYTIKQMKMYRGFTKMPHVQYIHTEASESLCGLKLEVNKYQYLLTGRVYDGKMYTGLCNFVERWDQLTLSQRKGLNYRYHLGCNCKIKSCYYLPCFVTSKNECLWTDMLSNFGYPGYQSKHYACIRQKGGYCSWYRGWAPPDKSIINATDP
Description: (§1) Cells were plated in 10-cm cell culture dishes and grown to 60-80% confluency. For each condition, two biological replicates were harvested for co-IP. Cells were washed with PBS and 4 mL of lysis buffer (20 mM HEPES, 1% Triton X-100, 150 mM NaCl, 1 mM EDTA, and 10% glycerol) containing protease inhibitor cocktail was added. Cells were scraped and lysate was incubated at 4° C. under rotary agitation for 1 h. Lysate was centrifuged at 14,000×g for 10 min at 4° C. Supernatant was transferred to a new tube and an aliquot was taken as the input. […] For Western blots, 10 μg/mL Chicken Anti-FLAG (Aves labs ET-DY100) and IgY control (R&D Systems AB-101-C) antibodies were biotinylated (Thermo Fisher Scientific 90407) and added to the respective conditions. Lysates with antibodies were incubated at 4° C. under rotary agitation overnight. For each mL of lysate, 50 μL of Pierce Protein A/G Magnetic Beads (Mass spectrometry; Thermo Fisher Scientific 88803) or Pierce Streptavidin Magnetic Beads (Western blot; Thermo Fisher Scientific 88817) was washed twice with lysis buffer. Lysates with antibodies were added to the beads and incubated at 4° C. under rotary agitation for 4 h. Beads were washed with lysis buffer 3 times and resuspended in lysis buffer for storage.
(§2) Magnetic beads were resuspended in 100 mM Tris pH 7.8, reduced, alkylated and digested with trypsin at 37° ° C. overnight. This solution was subjected to solid phase extraction to concentrate the peptides and remove unwanted reagents followed by injection onto a Shimadzu HPLC with fraction collector. Eight fractions were collected and after concentration were injected on a Waters NanoAcquity HPLC equipped with a self-packed Aeris 3 μm C18 analytical column 0.075 mm by 20 cm, (Phenomenex). Peptides were eluted using standard reverse-phase gradients. The effluent from the column was analyzed using a Thermo Orbitrap Elite mass spectrometer (nanospray configuration) operated in a data dependent manner for 54 minutes. The resulting fragmentation spectra were correlated against the known database using Proteome Discover 1.4 (Thermo Fisher Scientific).

EIF3I = target: T2, EIF3I (human, UniProt Q13347 1-325); assay: as above
T2 construct: Identified by mass spectrometry in the co-IP; also called NP_003748.1
T2 sequence (Q13347 whole entry): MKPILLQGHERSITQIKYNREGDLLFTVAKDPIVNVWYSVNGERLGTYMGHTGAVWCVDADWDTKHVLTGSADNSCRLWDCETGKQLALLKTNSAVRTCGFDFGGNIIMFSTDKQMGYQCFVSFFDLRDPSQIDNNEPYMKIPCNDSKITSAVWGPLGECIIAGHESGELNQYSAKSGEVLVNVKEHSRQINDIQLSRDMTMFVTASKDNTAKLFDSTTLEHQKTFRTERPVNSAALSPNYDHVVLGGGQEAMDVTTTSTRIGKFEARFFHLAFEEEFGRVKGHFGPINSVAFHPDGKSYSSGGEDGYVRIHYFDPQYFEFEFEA
Description: as §1, §2

VIM = target: T3, VIM (human, UniProt P08670 2-466); assay: as above
T3 construct: Identified by mass spectrometry in the co-IP; also called NP_003371.2
T3 sequence (P08670 2-466 limits assumed): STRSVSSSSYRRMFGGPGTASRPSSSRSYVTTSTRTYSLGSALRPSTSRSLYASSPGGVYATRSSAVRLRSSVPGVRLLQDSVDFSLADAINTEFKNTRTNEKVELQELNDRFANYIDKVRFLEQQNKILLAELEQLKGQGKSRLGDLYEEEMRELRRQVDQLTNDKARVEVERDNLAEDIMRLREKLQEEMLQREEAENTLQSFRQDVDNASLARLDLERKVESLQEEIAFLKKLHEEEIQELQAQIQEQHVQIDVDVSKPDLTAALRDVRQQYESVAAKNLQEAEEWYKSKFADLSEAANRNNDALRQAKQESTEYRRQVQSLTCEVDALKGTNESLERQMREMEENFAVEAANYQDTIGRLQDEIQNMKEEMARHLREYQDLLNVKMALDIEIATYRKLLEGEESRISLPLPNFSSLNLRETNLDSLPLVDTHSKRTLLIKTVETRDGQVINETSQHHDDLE
Description: as §1, §2

PABPC1 = target: T4, PABPC1 (human, UniProt P11940 1-636); assay: as above
T4 construct: Identified by mass spectrometry in the co-IP; also called NP_002559.2
T4 sequence (P11940 whole entry): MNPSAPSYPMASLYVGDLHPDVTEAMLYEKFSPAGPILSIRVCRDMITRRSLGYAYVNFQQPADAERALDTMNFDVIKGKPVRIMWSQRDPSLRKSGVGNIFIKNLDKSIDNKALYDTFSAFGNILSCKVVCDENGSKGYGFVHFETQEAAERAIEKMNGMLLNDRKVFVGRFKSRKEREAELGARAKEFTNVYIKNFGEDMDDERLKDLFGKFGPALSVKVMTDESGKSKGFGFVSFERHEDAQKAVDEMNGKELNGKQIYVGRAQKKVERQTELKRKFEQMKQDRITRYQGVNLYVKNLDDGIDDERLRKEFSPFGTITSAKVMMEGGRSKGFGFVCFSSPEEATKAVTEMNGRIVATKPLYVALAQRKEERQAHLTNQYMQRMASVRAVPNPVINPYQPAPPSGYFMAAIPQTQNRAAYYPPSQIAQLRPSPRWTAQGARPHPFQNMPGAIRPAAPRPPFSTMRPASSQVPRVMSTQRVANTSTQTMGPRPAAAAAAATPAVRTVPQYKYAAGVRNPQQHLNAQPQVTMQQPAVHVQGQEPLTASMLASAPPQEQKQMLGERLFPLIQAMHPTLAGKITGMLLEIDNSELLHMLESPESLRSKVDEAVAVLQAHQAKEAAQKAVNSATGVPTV
Description: as §1, §2

CPSF6 = target: T5, CPSF6 (human, UniProt Q16630-2 1-588, limits assumed); assay: as above
T5 construct: Identified by mass spectrometry in the co-IP; also called NP_001287876.1 (+3)
T5 sequence (looked up): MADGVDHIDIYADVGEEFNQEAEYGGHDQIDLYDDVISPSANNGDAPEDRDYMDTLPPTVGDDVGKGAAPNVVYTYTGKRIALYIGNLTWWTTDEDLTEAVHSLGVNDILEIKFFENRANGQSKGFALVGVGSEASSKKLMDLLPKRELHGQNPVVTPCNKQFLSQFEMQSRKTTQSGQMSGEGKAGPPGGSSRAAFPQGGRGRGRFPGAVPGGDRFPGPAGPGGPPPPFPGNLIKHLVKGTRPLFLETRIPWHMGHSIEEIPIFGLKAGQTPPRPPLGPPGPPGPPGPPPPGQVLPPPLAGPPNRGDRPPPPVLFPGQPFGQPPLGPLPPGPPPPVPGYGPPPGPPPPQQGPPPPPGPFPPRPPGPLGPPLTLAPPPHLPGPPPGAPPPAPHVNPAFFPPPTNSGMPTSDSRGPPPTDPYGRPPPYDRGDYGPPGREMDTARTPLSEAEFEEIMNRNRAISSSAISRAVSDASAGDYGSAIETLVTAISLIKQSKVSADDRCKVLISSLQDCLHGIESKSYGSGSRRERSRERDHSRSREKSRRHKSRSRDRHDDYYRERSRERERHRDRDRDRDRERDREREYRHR
Description: as §1, §2

CCT7 = target: T6, CCT7 (human, UniProt Q99832-3 1-499, limits assumed); assay: co-IP with anti-FLAG, mass spectrometry; lysate of cells with N-FLAG B3GNT2
T6 construct: also called NP_001159757.1 (+1)
T6 sequence (looked up): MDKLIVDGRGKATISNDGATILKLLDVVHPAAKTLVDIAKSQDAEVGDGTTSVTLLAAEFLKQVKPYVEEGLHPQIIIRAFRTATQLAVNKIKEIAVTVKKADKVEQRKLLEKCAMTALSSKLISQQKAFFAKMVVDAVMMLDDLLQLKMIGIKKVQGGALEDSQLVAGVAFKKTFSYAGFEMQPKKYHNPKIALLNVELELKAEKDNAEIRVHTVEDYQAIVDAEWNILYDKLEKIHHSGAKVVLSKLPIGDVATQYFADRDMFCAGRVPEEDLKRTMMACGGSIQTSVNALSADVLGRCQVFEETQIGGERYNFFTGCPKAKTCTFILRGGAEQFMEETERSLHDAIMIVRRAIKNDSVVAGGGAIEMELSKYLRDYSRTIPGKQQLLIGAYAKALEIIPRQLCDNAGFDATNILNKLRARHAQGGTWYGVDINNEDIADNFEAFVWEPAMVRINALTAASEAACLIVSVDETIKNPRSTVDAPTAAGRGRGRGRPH
Description: as §1, §2

- co-IP mass spectrometry count (N-term FLAG) (TIMP3): 0
- co-IP mass spectrometry count (N-term FLAG) (EIF3I): 0
- co-IP mass spectrometry count (N-term FLAG) (VIM): 402
- co-IP mass spectrometry count (N-term FLAG) (PABPC1): 31
- co-IP mass spectrometry count (N-term FLAG) (CPSF6): 30
B1: N-terminal FLAG tagged B3GNT2 (enzyme, human, UniProt Q9NY97 1-397, looked up)
chain: MSVGRRRIKLLGILMMANVFIYFIMEVSKSSSQEKNGKGEVIIPKEKFWKISTPPEAYWNREQEKLNRQYNPILSMLTNQTGEAGRLSNISHLNYCEPDLRVTSVVTGFNNLPDRFKDFLLYLRCRNYSLLIDQPDKCAKKPFLLLAIKSLTPHFARRQAIRESWGQESNAGNQTVVRVFLLGQTPPEDNHPDLSDMLKFESEKHQDILMWNYRDTFFNLSLKEVLFLRWVSTSCPDTEFVFKGDDDVFVNTHHILNYLNSLSKTKAKDLFIGDVIHNAGPHRDKKLKYYIPEVVYSGLYPPYAGGGGFLYSGHLALRLYHITDQVHLYPIDDVYTGMCLQKLGLVPEKHKGFRTFDIEEKNKNNICSYVDLMLVHSRKPQEMIDIWSQLQSAHLKC
notes: FLAG-tagged ORF overexpressed in A375 cells; bait of the co-IP with mouse anti-FLAG; also called N-FLAG B3GNT2; N-term FLAG; not shown: N-terminal FLAG tag

- co-IP mass spectrometry count (CCT7): 0
B2: N-terminal FLAG tagged B3GNT2 (enzyme, human, UniProt Q9NY97 1-397, looked up)
chain: B1 chain
notes: Bait of the co-IP; pulled down with mouse anti-FLAG (Millipore Sigma F3165) from cell lysate; also called N-FLAG B3GNT2; N-term FLAG; not shown: N-terminal FLAG tag
